# Patent US20170281764A1 (JN BIOSCIENCES, published 2017)
# Changes are numbered by the printed parent chain. Names may count otherwise.
# T1: E39A
# T1 construct: also called HA-tagged human TIGIT with mutation E39A, on CHO-K1 cells
# T1 single chain: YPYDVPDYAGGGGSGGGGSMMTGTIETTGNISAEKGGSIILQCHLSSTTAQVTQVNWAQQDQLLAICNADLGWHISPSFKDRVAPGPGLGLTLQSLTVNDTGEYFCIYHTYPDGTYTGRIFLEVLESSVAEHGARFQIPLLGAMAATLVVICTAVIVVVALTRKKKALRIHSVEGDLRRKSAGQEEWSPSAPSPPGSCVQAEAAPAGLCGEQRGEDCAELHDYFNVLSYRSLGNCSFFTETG
# T2: F86A
# T2 construct: also called HA-tagged human TIGIT with mutation F86A, on CHO-K1 cells
# T2 single chain: T1 single chain with A58E, F105A
# T3: HA-tagged human TIGIT with mutation N37A, on CHO-K1 cells (human, UniProt Q495A1 22-244)
# T3 construct: Built as for m17
# T3 sequence: T1 single chain with N56A, A58E
# T4: L44A
# T4 construct: also called HA-tagged human TIGIT with mutation L44A, on CHO-K1 cells
# T4 single chain: T1 single chain with A58E, L63A
# T5: T96A
# T5 construct: also called HA-tagged human TIGIT with mutation T96A, on CHO-K1 cells
# T5 single chain: T1 single chain with A58E, T115A
# T6: T34A
# T6 construct: also called HA-tagged human TIGIT with mutation T34A, on CHO-K1 cells
# T6 single chain: T1 single chain with T53A, A58E
# B1: HuTIG1-IgG1.AA (humanized IgG1/kappa form of TIG1, L234A/L235A) (antibody)
# heavy: not shown
# light: DIQMTQSPSSLSASVGDRVTITCRASKSISKYLAWYQQKPGKAPKLLIYSGSTLQSGVPSRFSGSGSGTDFTLTISSLQPEDFATYYCQQHNEYPWTFGGGTKVEIKRTVAAPSVFIFPPSDEQLKSGTASVVCLLNNFYPREAKVQWKVDNALQSGNSQESVTEQDSKDSTYSLSSTLTLSKADYEKHKVYACEVTHQGLSSPVTKSFNRGEC
# notes: Mature full chains; also called humanized TIG1
# Experiments:
# Assay in all cases: flow cytometry titration on CHO-K1 cells transiently expressing the HA-tagged TIGIT mutant, Alexa488 anti-human IgG detection, four-parameter fit of percent of control, nM is from the concentration axis and paragraph 252
# E39A = molecular target: T1, E39A
# Description: (§1) For flow cytometry analysis of the anti-hTIGIT antibody binding epitope, HA-tagged human TIGIT proteins with or without single amino acid mutation were transiently transfected into CHO-K1 cells. After 24 hr, transfected cells were suspended in HBSS buffer (Thermo Fisher Scientific, Cat#14175095), and incubated with HuTIG1-IgG1.AA antibody at varying concentrations in 50 μL volume. After 1 hr incubation at 4° C., cells were washed and a second incubation with 50 μL Alexa488 conjugated anti-human IgG(H+L) secondary antibody (Thermo Fisher Scientific, Cat#A-11013) was performed to detect cells bound by antibody. Cells were incubated with an anti-HA antibody (Sigma, Cat# H7411) as a positive control, and non-transfected CHO-K1 cells were used as a negative control. The cells were analyzed on an Attune NxT Cytometer (Thermo Fisher Scientific) and the data were processed using FlowJo software. For each mutant, the saturating antibody binding MFI (mean fluorescence intensity) were normalized to 100% POC (percent of control), and no primary antibody binding control MFI were normalized to 0% POC. Data were then fit to a four parameter non-linear sigmoidal curve using GraphPad Prism 7 curve fitting using following formula: Y=Bottom+(Top−Bottom)/(1+10^{((Log EC}^₅₀^{-X)*HillSlope)}).
# (§2) All of these residues co-locate to one discrete region on the front ([…] structure of the TIGIT IgV extracellular domain (FIG. 28).
# F86A = molecular target: T2, F86A
# Description: as §1, §2
# [1] = molecular target: T3, HA-tagged human TIGIT with mutation …
# Description: as §1, §2
# L44A = molecular target: T4, L44A
# Description: as §1, §2
# T96A = molecular target: T5, T96A
# Description: as §1, §2
# T34A = molecular target: T6, T34A
# Description: as §1, §2
binder,measurement,setting,value
B1,EC50,E39A,1.58 nM
same,EC50,F86A,0.844 nM
same,EC50,[1],126 nM
same,EC50,L44A,1.23 nM
same,EC50,T96A,1.36 nM
same,EC50,T34A,0.577 nM
